Here are results for five substances from publication PMC5600700.

In test [1] the target is Cx45 CT (UniProt P36383). To be noted: cited from earlier work.
Test [2] addresses Cx45CT WT (Lyn-HA-Cx45CT-mVenusN and Lyn-Myc-Cx45CT-mVenusC) (not stated (human or mouse cDNA cloned)). The test can be described thus: split reporter.
The target of test [3] is Cx45 6E (stably expressed in MDCK cells) (not stated (human or mouse cDNA cloned)) (UniProt P28229). Kind of test: co-IP.
Sequence of UniProt P28229 (P28229 whole entry L335E/L338E/L349E/I353E/Y356E): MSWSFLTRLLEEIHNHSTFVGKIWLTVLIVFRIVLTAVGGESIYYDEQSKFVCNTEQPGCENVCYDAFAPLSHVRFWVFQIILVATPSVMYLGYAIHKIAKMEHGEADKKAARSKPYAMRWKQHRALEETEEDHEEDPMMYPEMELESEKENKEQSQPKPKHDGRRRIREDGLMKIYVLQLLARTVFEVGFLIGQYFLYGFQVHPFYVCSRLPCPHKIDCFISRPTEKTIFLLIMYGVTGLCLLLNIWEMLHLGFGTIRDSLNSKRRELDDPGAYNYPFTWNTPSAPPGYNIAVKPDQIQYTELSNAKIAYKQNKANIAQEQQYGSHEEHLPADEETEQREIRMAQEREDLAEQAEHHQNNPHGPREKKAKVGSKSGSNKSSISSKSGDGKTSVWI

In the case of Cx45 CT (from UniProt P36383), the Kd (in general, the free concentration of one partner at which half of the binding sites on the other are occupied at equilibrium, for simple one-to-one binding) in test [1] was 100 nM.
With “Cx45CT WT (Lyn-HA-Cx45CT-mVenusN and Lyn-Myc-Cx45CT-mVenusC) (domain or fragment)”, the fold mVenus signal at the plasma membrane (normalized to Myc) over Cx45CT 6E in test [2] amounted to 2.5 fold.
As to “developmentally regulated brain protein (Drebrin) (natural protein)”, the fold increase of the co-immunoprecipitated amount relative to Cx45 WT in test [3] is 2 fold.
In test [3], β-tubulin (natural protein) registered a fold decrease of the co-immunoprecipitated amount relative to Cx45 WT of 3 fold.
In test [3], “neural precursor cell expressed developmentally down-regulated protein 4 (Nedd4) (enzyme)” returned a fold decrease of the co-immunoprecipitated amount relative to Cx45 WT of 2 fold.
